{"source": "patent US20230212218A1", "about": "(NAVIGO PROTEINS, published 2023)"}
{"molecular_target": "T1, hIgG1-Fc (human, UniProt P01857-1 100-330 = IgG part, limits assumed)", "T1 construct": "domain: Fc; treated as the same molecule; also called IgG1 Fc region; hIgG-Fc", "experiment": "SPR, Biacore 3000", "source_text": "(§1) A CM5 sensor chip (GE Healthcare) was equilibrated with SPR running buffer. Surface-exposed carboxylic groups were activated by passing a mixture of EDC and NHS to yield reactive ester groups. 700-1500 RU on-ligand were immobilized on a flow cell, off-ligand was immobilized on another flow cell. Injection of ethanolamine after ligand immobilization removes non-covalently bound Ig binding protein. Upon ligand binding, protein analyte was accumulated on the surface increasing the refractive index. This change in the refractive index was measured in real time and plotted as response or resonance units (RU) versus time. The analytes were applied to the chip in serial dilutions with a suitable flow rate (µl/min). After each run, the chip surface was regenerated with regeneration buffer and equilibrated with running buffer. The control samples were applied to the matrix. Regeneration and re-equilibration were performed as previously mentioned. Binding studies were carried out by the use of the Biacore® 3000 (GE Healthcare) at 25° C.; data evaluation was operated via the BIAevaluation 3.0 software, provided by the manufacturer, by the use of the Langmuir 1:1 model (RI=0). Evaluated dissociation constants (KD) were standardized against off-target and KD values of different artificial Ig binding proteins for hIgG1-Fc (FIG. 2 and TABLE 6). For example, the KD of SEQ ID NO: 41 (CID208846) and SEQ ID NO: 42 (CID208847) is in single-digit µM range vs. hIgG1-Fc."}
{"binder": "CID-210240 (designed binder, not tied in the text) ADNKFSQSANLLAEAKKLNDAQGGLTEEQRNGFIQSLKDDPVLRGKPNKEQQNAFYEILHLPK", "binding result": "binds"}
{"binder": "CID-213276 (designed binder, not tied in the text) ADNKFSQSANLLAEAKKLNDAQGGITEEQRNGFIQSLKDDAKANPEANKEQQNAFYEILHLPK", "binding result": "binds"}
{"binder": "CID-210234 (designed binder, not tied in the text) ADNKFSQSANLLAEAKKLNDAQGGLTEEQRNGFIQSLKDDASEKGANKEQQNAFYEILHLPK", "binding result": "binds"}
{"binder": "CID-213213 (designed binder, not tied in the text) ADNKFSQSANLLAEAKKLNDAQGGLTEEQRNGFIQSLKDDHTPTRGNKEQQNAFYEILHLPK", "binding result": "binds"}
{"molecular_target": "T1, hIgG1-Fc", "experiment": "SPR, Biacore 3000, 25 C, Langmuir 1:1 model", "source_text": "as §1", "units": {"Kd": "nM"}}
{"binder": "CID213235 (designed binder) ADNKFSQSANLLAEAKKLSDAQRGLTEEQRNGFIQSLKDDTKRHPKMNKEQQNAFYEILHLPK", "Kd": 257}
{"binder": "CID210279 (designed binder) ADNKFSQSANLLAEAKKLNDAQGGLTEEQRNGFIQSLKDDTHPEDRQHNKEQQNAFYEILHLPK", "Kd": 103}
{"binder": "CID213197 (designed binder) ADNKFSQSANLLAEAKKLNDAQGGLTEEQRNGFIQSLKDDTAANPTANKEQQNAFYEILHLPK", "Kd": 84}
{"binder": "CID213333 (designed binder) ADNKFSQSANLLAEAKKLNDAQGGITEEQRNGFIQSLKDDAKTNPGNNKEQQNAFYEILHLPK", "Kd": 43}
{"binder": "CID210259 (designed binder) ADNKFSQSANLLAEAKKLNDAQGGITEEQRNGFIQSLKDDAKRNPMTNKEQQNAFYEILHLPK", "Kd": 507}
{"binder": "CID213246 (designed binder) ADNKFSQSANLLAEAKKLNDAQGGLTEEQRNGFIQSLKDDVRRVGSNKEQQNAFYEILHLPK", "Kd": 248}
{"binder": "CID213224 (designed binder) ADNKFSQSANLLAEAKKLNDAQNGLTEEQRNGFIQSLKDDVRTNGANKEQQNAFYEILHLPK", "Kd": 220}
{"binder": "CID213191 (designed binder) ADNKFSQSANLLAEAKKLNDAQGGLTEEQRNGFIQSLKDDGTEGVHNKEQQNAFYEILHLPK", "Kd": 132}
{"binder": "CID213215 (designed binder) ADNKFSQSANLLAEAKKLNDAQGGLTEEQRNGFIQSLKDDVRKLGPNKEQQNAFYEILHLPK", "Kd": 190}
{"binder": "CID213278 (designed binder) ADNKFSQSANLLAEAKKLNDAQGGLTEEQRNGFIQSLKDDMNVGKHNKEQQNAFYEILHLPK", "Kd": 199}
{"molecular_target": "T1, hIgG1-Fc", "experiment": "SPR (Biacore) on hIgG1-Fc, one concentration, 1 µM", "source_text": "Analysis via label-free interaction assays using SPR spectroscopy (BIAcore). Change in refractive index measured in real time and plotted as response or resonance unit [RU] versus time [sec]. […] Solid line = Ig binding protein SEQ ID NO: 41; dotted line = Ig binding protein SEQ ID NO: 42.\nas §1, with “Binding studies were carried out by the use of the Biacore® 3000 (GE Healthcare) at 25° C.; data evaluation was operated via the BIAevaluation 3.0 software, provided by the manufacturer, by the use of the Langmuir 1:1 model (RI=0).” left out, “For example, the KD of SEQ ID NO: 41 (CID208846) and SEQ ID NO: 42 (CID208847) is in single-digit µM range vs. hIgG1-Fc.” left out"}
{"binder": "SEQ ID NO: 42 (CID208847) (designed binder) ADNKFSQSANLLAEAKKLNDAQGGLTEEQRNGFIQSLKDDVPAGVANNKEQQNAFYEILHLPK", "binding result": "binds"}
{"binder": "SEQ ID NO: 41 (CID208846) (designed binder) ADNKFSQSANLLAEAKKLNDAQGGITEEQRNGFIQSLKDDIGASPMNKEQQNAFYEILHLPK", "binding result": "binds"}
